Where a chain is given by its changes, count along the chain named. Starred links: 1 amine or outer side, 2 acyl side, 3 side chain; linkers in the order of their positions; H or OH if unused. Non-standard residues stand in square brackets, D forms with d. Groups on a side chain read outwards from the residue. No end group written: not given here. *: point of attachment. C20 diacid = O=C(O)CCCCCCCCCCCCCCCCCCC(=O)*; γGlu = O=C(O)[C@H](CCC(=O)[*:2])N[*:1]; εLys = N[C@@H](CCCCN[*:1])C(=O)[*:2]; Aib = CC(C)(N)C(=O)O
T1: human GIP receptor (human, UniProt P48546 22-466)
T1 sequence (looked up): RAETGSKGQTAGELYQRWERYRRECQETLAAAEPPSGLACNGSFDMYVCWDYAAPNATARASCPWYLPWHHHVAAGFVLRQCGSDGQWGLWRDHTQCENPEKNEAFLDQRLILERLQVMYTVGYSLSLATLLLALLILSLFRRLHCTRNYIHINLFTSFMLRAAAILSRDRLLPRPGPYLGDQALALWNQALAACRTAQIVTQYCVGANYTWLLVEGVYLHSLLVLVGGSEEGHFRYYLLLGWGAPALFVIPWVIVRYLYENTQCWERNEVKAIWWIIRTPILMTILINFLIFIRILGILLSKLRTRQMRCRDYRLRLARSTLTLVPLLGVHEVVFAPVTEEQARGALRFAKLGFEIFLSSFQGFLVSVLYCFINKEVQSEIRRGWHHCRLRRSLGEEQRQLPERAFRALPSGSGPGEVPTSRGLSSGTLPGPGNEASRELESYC

T2: human neuropeptide Y2 (NPY2) receptor (human, UniProt P49146 1-381)
T2 sequence (looked up): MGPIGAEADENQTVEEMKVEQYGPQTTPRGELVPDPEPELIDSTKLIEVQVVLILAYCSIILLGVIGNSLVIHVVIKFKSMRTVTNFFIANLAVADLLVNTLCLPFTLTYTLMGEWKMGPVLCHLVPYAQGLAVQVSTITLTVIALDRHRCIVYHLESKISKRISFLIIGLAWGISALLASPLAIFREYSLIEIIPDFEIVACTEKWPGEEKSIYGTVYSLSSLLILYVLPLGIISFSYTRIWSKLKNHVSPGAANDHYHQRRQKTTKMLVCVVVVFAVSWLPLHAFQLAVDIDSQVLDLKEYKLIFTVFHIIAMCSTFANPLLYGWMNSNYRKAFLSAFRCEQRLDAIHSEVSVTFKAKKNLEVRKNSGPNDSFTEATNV

B1: Compound 18 (peptide)
peptide: YXEGTFTSDYSIXLEKQAQXAFVEWLIKGGPSSGASLRHYXNRXTRQRY
modifications: Aib at 2, 13, 20, 41, 44; K28 side chain: C20DA-gGlu-gGlu-gGlu-gGlu-gGlu-gGlu-eLys; C-terminal NH2
B2: Compound 24 (peptide)
peptide: B1 peptide with K16X, Q17K, A21E, X41Y, R43W, X44L
modifications: Aib at 2, 13, 16, 20; K28 side chain: C20DA-gGlu-gGlu-gGlu-gGlu-gGlu-gGlu-eLys; C-terminal NH2
B3: Compound 25 (peptide)
peptide: B1 peptide with K16A, Q17A, A18K, X41Y, R43W, X44L
modifications: Aib at 2, 13, 20; K28 side chain: C20DA-gGlu-gGlu-gGlu-gGlu-gGlu-gGlu-eLys; C-terminal NH2
B4: Compound 20 (peptide)
peptide: B1 peptide with E15A, K16A, Q17A, X41Y, R43W, X44L
modifications: Aib at 2, 13, 20; K28 side chain: C20DA-gGlu-gGlu-gGlu-gGlu-gGlu-gGlu-eLys; C-terminal NH2
B5: Compound 4 (peptide)
peptide: B1 peptide with L37X
modifications: Aib at 2, 13, 20, 37, 41, 44; K28 side chain: C20DA-gGlu-gGlu-gGlu-gGlu-gGlu-gGlu-eLys; C-terminal NH2
B6: Compound 3 (peptide)
peptide: YXEGTFTSDYSIXLEKQAQXAFVQWLIKGGQRSYASLRHYYNWLTRQRY
modifications: Aib at 2, 13, 20; K28 side chain: C20DA-gGlu-gGlu-gGlu-gGlu-gGlu-gGlu-eLys; C-terminal NH2
B7: Compound 29 (peptide)
peptide: B6 peptide with Q31P, R32E, Y34G
modifications: Aib at 2, 13, 20; K28 side chain: C20DA-gGlu-gGlu-gGlu-gGlu-gGlu; C-terminal NH2
B8: Compound 26 (peptide)
peptide: B1 peptide with L37X, X41Y, R43W, X44L, R46X
modifications: Aib at 2, 13, 20, 37; hArg 46; DTyr 49; K28 side chain: C20DA-gGlu-gGlu-gGlu-gGlu-gGlu-gGlu-eLys; C-terminal NH2

Molecular target: human GLP-1 receptor (human, UniProt P43220 24-463)
Experiment: cell-based or functional assay

Row | EC50, CreLuc assay, 0.5% hP | EC50, CreLuc assay, 100% hP | Binder
1 | 0.47 nM | 37.7 nM | Y[Aib]EGTFTSDYSI[Aib]LEKQAQ[Aib]AFVQWLIK([εLys-Glu-γGlu-γGlu-γGlu-γGlu-C20 diacid])GGPEYYASLRHYYNWLTRQRY-NH2 (also: TFA salt) [Compound 23]
2 | 0.22 nM | 6.51 nM | Y[Aib]EGTFTSDYSI[Aib]LEKQAQ[Aib]EFVQWLIKGGPSSGASLRHYYNWLTRQRY-NH2 (not fully specified (residue 28); also: TFA salt) [Compound 28]
3 | 0.12 nM | 1.94 nM | B1
4 | 1.77 nM | 15.3 nM | B2
5 | 0.67 nM | 14.2 nM | B3
6 | 0.87 nM | 24.3 nM | B4
7 | 0.09 nM | 1.74 nM | B5
8 | 0.45 nM | 14.4 nM | B6
9 | 0.13 nM | 6.74 nM | B7
10 | 0.07 nM | 1.18 nM | B8

Molecular target: T1, human GIP receptor
Experiment: cell-based or functional assay

Row | EC50, CreLuc assay, 0.5% hP | EC50, CreLuc assay, 100% hP | Binder
11 | 0.56 nM | 11.4 nM | Y[Aib]EGTFTSDYSI[Aib]LEKQAQ[Aib]AFVQWLIK([εLys-Glu-γGlu-γGlu-γGlu-γGlu-C20 diacid])GGPEYYASLRHYYNWLTRQRY-NH2 (also: TFA salt) [Compound 23]
12 | 0.38 nM | 3.08 nM | Y[Aib]EGTFTSDYSI[Aib]LEKQAQ[Aib]EFVQWLIKGGPSSGASLRHYYNWLTRQRY-NH2 (not fully specified (residue 28); also: TFA salt) [Compound 28]
13 | 0.36 nM | 1.98 nM | B1
14 | 4.1 nM | 17.7 nM | B2
15 | 0.98 nM | 6.97 nM | B3
16 | 0.93 nM | 7.75 nM | B4
17 | 0.25 nM | 1.66 nM | B5
18 | 0.53 nM | 6.56 nM | B6
19 | 0.23 nM | 4.08 nM | B7
20 | 0.09 nM | 0.7 nM | B8

Molecular target: T2, human neuropeptide Y2 (NPY2) receptor
Experiment: cell-based or functional assay

Row | EC50, CreLuc assay, 0.5% hP | EC50, CreLuc assay, 100% hP | Binder
21 | 10.1 nM | 72.4 nM | Y[Aib]EGTFTSDYSI[Aib]LEKQAQ[Aib]AFVQWLIK([εLys-Glu-γGlu-γGlu-γGlu-γGlu-C20 diacid])GGPEYYASLRHYYNWLTRQRY-NH2 (also: TFA salt) [Compound 23]
22 | 10.3 nM | 46 nM | Y[Aib]EGTFTSDYSI[Aib]LEKQAQ[Aib]EFVQWLIKGGPSSGASLRHYYNWLTRQRY-NH2 (not fully specified (residue 28); also: TFA salt) [Compound 28]
23 | 85.7 nM | 224 nM | B1
24 | 26.8 nM | 94.5 nM | B2
25 | 13 nM | 38.3 nM | B3
26 | 19.1 nM | 62 nM | B4
27 | 66.4 nM | 182 nM | B5
28 | 4.45 nM | 23 nM | B6
29 | 8.79 nM | 74.5 nM | B7
30 | > 100 nM | 670 nM | B8

Reference: patent publication US20240247080A1, “GLP1/GIP/NPY2 RECEPTOR TRIPLE AGONISTS” (Boehringer Ingelheim International GmbH, priority 2022, published 2024)
